# Experimental data reported in publication PMC11046469, “Leveraging a Phage-Encoded Noncanonical Amino Acid: A Novel Pathway to Potent and Selective Epigenetic Reader Protein Inhibitors” (ACS Central Science, 2024).
# Biological target: T1, ENL YEATS domain (AviSUMO-ENL YEATS) (Homo sapiens, UniProt Q03111)
# T1 construct: encoding ENL YEATS (aa 1−148) was cloned in pET28a-; made in house; host or cells: E. coli BL21(DE3pLysS), co-expressed with BirA (pBirAcm)
# T1 sequence (Q03111 1-148): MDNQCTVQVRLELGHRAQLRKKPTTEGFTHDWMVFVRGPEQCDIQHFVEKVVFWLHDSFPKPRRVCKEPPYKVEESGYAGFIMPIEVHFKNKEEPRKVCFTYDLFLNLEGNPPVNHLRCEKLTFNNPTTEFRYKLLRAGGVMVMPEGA
# Assay: Phage panning of BuK-containing 7-mer library against AviSUMO-ENL YEATS with Illumina NGS abundance
# Conditions: sheet ENLR3: round 3 of panning against ENL YEATS; TAG = amber codon (BuK); 7-mer library positions V1-V7
# Source text: We utilized a previously established amber-obligate 7-mer phage display library to develop a phage display library enriched with BuK-containing 7-mer peptides. For detailed characterizations, including analysis of amber codon percentages, NNK trinucleotide analysis, and amino acid distribution at each position within the library, please refer to the work of Tharp et al.[10] Furthermore, the comprehensive raw NGS data for the amber-obligate 7-mer phage library can be found in the NCBI’s Sequence Read Archive, under the accession ID PRJNA606283. To produce the BuK-containing 7-mer phage library, the phages were produced in the presence of 5 mM BuK using TOP10 cells harboring the following three plasmids: (1) pADL-gIII, which contains the 7-mer amber-obligate peptide-coding DNA library positioned at the N-terminus of M13 pIII gene; (2) pCDF-BuKRS, which encodes BuKRS and its cognate tRNA^Pyl for the genetic incorporation of BuK at amber codons in the 7-mer library; and (3) M13KO7TAA, a helper phage plasmid engineered to have a TAA mutation at pIII so that its lack of a functional pIII allows an efficient multivalent display of the 7-mer library. The ENL YEATS domain containing an N-terminal AviSUMO-Tag was recombinantly expressed in E. coli together with BirA, a biotin ligase, for site-specific biotinylation at the AviTag. The biotinylated AviSUMO-ENL YEATS was immobilized on streptavidin-coated magnetic beads for panning with the BuK-containing phages. […] Phage libraries collected from the first and third rounds of selection were sequenced using Illumina next generation sequencing (NGS) and all sequenced data are available through the NCBI SRA database (Project PRJNA1041845). To prevent possible sequencing errors from affecting conclusions, sequences were filtered using previously published paired-end processing,[10] where any sequences containing more than one mismatch in the nonlibrary region or any mismatch in the library region were discarded. The NGS data provided DNA sequences encompassing both the library and nonlibrary regions. In our analysis, we included data from the nonlibrary region as a stringent quality control measure to filter out low-quality data. For our analysis, we utilized 51 nucleotides from the NGS output, with 21 nucleotides encoding the library region and an additional 30 nucleotides for the nonlibrary region. […] Among all the sequences, only 85 of them contained more than 100 copies (blue area), while the remaining sequences all had low abundances (<10^2 copies, dark and light gray areas), which constituted 85.2% of the first round population. After three panning rounds, the selection converged to two highly enriched sequences: YDVYCYX (ENL-S1) and WWIIEXG (ENL-S2, X denotes BuK). Out of 551 different unique sequences collected from the third round, ENL-S1 and ENL-S2 represented 85% of the entire library (Figure 2A and Figures S6–S8). Both peptide sequences corresponded to their own unique DNA sequence, rather than there being varying codons encoding the same amino acids (Figure S7). […] Two motifs were found in the majority of sequences with high abundance (greater than 0.1%) (Figure S6). A Y(C/L)Y pattern was identified in the residues adjacent to BuK in four of the eight top sequences. Also, an H(L/Y)(T/V)LFXG (X denotes BuK) motif was observed, albeit at lower abundances, in two of the top sequences. In the initial round of selection, we observed that only a small percentage of phages were eluted, which aligns with typical outcomes in phage selection experiments since only a low copy number of phages can bind to the target.[10],[45] With each successive round of selection, we noted a gradual increase in the percentage of phages eluted. This incremental, rather than sharp, increase was attributed to the intensification of selection pressures, such as the application of more stringent washing protocols. We aimed for the incremental increase to retain potent clones with low copy numbers from the previous selection cycle. […]
n (number of NGS reads of the unique amino acid sequence),percent (share of sequence reads) [%],Substance
2,0.001821,QYGPRTAGD
3,0.002732,HLTFFTAGG
2,0.001821,YDVYCYL
3,0.002732,YDVYCNTAG
39,0.03551,LTCYCYTAG
1,0.0009106,CYPTAGKCC
3,0.002732,YDIYCYTAG
15,0.01366,YDVYCYQ
9,0.008196,WRIIETAGG
70,0.06374,WWVAGPTAG
4,0.003642,ILIYTAGGD
3,0.002732,QCGPRTAGN
6,0.005464,YDVCCYTAG
2,0.001821,FDVYCYTAG
27,0.02459,WWIIETAGW
79,0.07194,SWYITFTAG
1,0.0009106,HIKCTAGII
74,0.06739,CWVCTAGPH
1,0.0009106,LTAGTVLDP
7,0.006374,YAIYCYTAG
759,0.6912,HAIYCYTAG
19,0.0173,WWIITAGTAGG
5,0.004553,QCVPRTAGD
1,0.0009106,FTAGIYTAA
3,0.002732,TAGCGPRTAGD

n (number of NGS reads of the unique amino acid sequence),percent (share of sequence reads) [%],Substance
1,0.0009106,FLYTAGMPV
142,0.1293,RTVYCYTAG
4,0.003642,QCGPWTAGD
7,0.006374,CLPWTAGSS
2,0.001821,YEVYCYTAG
16,0.01457,WWIIETAGV
1,0.0009106,CPCWTAGLL
2,0.001821,QRGPRTAGD
1,0.0009106,HTAGSFCRL
1,0.0009106,CYDLCYG
3,0.002732,WSIIETAGG
1,0.0009106,FTWSTAGED
1,0.0009106,IGSIHYTAG
2802,2.552,HLTLFTAGG
3,0.002732,YDVYCTAGTAG
1,0.0009106,MTAGGLRHS
4,0.003642,QCGLRTAGD
3,0.002732,VYCYTAGVW
2,0.001821,HSTLFTAGG
1,0.0009106,FLFDTTAGT
29,0.02641,WWIIEYG
2,0.001821,WWIIEKG
1,0.0009106,LLWTAGLAS
4,0.003642,WTAGIIETAGG
7,0.006374,RWIIETAGG

# Same assay, conditions: sheet ENLR3: round 3 of selection against ENL YEATS; TAG = amber codon (BuK)
n (number of NGS reads of the 7-mer sequence V1-V7),percent (share of NGS reads of the 7-mer sequence V1-V7) [%],Substance
1,0.0009106,YVGPLTAGG
1,0.0009106,QCGPRWD
1,0.0009106,YLYTAGAPC
1,0.0009106,STVYCYTAG
1,0.0009106,RTVYCHTAG
1,0.0009106,YDVYCYK
1,0.0009106,YLYTAGVHC
1,0.0009106,TAGSSIITC
1,0.0009106,NTAGNIGLY
1,0.0009106,YDVYCSTAG
1,0.0009106,SGVGFTAGS
1,0.0009106,TAGKDQLWN
1,0.0009106,RLTLFTAGG
1,0.0009106,YLYTAGVPF
1,0.0009106,QCGPPTAGD
1,0.0009106,NYVLFTAGG
1,0.0009106,SMMTAGSST
1,0.0009106,WCFMVFL
